Reference: PMC12088458

Legend:
Experiment in all cases: BioID proximity labelling, biotin pull-down, mass spectrometry
Details in all cases: HEK293T, n = 3, over EV-BirA control, read off a plot
[1] = biological target: β-catenin (UniProt P35222)
[2] = biological target: SMARCA5 (UniProt O60264)
[3] = biological target: SMARCA4 (UniProt P51532)
[4] = biological target: DDX3X (UniProt O00571)
[5] = biological target: TRRAP (UniProt Q9Y4A5)

Sequence of UniProt O60264 (O60264 whole entry): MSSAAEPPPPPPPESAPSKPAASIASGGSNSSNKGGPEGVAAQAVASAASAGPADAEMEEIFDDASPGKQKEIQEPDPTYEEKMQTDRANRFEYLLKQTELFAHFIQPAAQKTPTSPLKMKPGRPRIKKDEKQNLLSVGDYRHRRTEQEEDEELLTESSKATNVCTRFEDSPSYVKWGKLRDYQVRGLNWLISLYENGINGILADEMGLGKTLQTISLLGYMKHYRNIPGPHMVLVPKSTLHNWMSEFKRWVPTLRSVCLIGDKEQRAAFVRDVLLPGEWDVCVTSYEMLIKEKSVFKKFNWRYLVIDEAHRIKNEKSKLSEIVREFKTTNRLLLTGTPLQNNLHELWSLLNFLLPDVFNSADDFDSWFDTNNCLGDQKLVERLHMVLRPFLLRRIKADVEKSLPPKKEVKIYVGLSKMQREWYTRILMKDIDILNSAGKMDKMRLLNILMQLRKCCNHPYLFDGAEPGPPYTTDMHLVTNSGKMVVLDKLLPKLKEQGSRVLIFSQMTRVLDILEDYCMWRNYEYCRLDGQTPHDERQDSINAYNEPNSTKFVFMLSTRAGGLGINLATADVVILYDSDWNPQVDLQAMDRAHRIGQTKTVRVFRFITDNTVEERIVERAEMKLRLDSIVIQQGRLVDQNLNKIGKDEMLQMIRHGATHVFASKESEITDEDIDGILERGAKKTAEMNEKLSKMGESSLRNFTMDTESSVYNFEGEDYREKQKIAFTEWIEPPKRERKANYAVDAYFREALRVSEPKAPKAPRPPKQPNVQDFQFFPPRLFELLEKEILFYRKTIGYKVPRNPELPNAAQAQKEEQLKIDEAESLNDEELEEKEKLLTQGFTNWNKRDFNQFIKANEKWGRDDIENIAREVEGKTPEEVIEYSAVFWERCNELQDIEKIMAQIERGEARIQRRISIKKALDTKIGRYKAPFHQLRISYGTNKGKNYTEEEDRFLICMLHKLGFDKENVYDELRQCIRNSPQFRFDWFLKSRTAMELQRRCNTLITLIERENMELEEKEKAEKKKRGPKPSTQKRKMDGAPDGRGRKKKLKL
Sequence of UniProt P51532 (P51532 whole entry): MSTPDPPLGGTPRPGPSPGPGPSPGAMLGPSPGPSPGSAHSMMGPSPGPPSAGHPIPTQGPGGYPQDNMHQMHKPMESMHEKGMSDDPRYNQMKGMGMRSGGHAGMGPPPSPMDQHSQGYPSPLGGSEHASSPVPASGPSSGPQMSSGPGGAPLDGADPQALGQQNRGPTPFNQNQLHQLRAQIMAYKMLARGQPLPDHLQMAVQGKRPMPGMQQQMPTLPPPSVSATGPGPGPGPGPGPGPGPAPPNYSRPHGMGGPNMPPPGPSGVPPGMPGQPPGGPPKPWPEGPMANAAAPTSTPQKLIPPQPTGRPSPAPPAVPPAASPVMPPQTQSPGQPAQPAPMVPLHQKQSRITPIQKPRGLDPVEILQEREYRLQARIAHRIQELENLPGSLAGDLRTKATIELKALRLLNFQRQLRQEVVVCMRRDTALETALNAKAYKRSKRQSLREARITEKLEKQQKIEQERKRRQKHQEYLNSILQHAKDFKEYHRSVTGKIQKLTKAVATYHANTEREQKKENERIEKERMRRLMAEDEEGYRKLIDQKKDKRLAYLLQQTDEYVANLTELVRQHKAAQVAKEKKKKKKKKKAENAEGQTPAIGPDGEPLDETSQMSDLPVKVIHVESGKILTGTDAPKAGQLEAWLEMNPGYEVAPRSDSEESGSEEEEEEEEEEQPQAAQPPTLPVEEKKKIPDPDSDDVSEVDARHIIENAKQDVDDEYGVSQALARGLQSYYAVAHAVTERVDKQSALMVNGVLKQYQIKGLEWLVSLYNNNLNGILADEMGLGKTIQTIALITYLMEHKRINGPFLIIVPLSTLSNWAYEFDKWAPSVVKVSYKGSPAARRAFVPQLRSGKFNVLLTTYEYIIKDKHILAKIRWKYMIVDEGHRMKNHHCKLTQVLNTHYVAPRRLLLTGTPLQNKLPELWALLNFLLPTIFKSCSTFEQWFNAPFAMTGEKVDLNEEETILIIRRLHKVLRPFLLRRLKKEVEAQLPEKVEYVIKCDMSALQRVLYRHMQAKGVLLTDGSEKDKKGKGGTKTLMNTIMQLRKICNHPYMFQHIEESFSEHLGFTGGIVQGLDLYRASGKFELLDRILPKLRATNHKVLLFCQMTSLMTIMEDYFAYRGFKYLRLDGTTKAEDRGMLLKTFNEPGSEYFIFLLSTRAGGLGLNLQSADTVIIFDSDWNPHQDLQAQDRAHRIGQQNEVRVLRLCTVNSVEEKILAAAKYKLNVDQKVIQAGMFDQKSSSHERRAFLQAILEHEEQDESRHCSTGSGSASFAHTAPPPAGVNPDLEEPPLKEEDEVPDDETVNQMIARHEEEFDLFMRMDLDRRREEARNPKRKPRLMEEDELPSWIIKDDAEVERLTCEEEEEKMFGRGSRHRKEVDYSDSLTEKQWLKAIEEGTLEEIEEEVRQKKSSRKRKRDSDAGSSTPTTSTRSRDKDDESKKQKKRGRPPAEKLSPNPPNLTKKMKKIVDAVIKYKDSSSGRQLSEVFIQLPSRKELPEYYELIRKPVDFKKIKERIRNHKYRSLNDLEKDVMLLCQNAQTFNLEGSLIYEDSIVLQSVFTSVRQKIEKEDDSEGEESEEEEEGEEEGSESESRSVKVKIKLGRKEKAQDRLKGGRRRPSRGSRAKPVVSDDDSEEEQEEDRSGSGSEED
Sequence of UniProt P35222 (P35222 whole entry): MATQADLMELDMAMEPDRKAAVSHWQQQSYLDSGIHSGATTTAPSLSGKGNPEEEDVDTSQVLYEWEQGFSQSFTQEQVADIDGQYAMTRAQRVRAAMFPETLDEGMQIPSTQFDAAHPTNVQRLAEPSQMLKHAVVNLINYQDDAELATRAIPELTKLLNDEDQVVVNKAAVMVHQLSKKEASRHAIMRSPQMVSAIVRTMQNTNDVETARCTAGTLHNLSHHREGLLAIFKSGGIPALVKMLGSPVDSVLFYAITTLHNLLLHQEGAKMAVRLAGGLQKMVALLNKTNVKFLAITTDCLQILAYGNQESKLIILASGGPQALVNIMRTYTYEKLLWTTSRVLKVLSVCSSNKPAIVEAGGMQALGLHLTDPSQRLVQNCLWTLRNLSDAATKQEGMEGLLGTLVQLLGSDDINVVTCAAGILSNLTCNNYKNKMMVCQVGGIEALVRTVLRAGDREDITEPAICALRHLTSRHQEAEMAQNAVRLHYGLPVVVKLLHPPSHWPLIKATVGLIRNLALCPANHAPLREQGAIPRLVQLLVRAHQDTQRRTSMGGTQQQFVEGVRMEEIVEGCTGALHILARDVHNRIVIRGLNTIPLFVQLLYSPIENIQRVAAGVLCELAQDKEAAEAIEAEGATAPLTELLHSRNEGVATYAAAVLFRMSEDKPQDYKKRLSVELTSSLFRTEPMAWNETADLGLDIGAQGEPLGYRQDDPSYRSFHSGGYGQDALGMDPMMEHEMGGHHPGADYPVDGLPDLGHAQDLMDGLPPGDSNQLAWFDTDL
Sequence of UniProt O00571 (O00571 whole entry): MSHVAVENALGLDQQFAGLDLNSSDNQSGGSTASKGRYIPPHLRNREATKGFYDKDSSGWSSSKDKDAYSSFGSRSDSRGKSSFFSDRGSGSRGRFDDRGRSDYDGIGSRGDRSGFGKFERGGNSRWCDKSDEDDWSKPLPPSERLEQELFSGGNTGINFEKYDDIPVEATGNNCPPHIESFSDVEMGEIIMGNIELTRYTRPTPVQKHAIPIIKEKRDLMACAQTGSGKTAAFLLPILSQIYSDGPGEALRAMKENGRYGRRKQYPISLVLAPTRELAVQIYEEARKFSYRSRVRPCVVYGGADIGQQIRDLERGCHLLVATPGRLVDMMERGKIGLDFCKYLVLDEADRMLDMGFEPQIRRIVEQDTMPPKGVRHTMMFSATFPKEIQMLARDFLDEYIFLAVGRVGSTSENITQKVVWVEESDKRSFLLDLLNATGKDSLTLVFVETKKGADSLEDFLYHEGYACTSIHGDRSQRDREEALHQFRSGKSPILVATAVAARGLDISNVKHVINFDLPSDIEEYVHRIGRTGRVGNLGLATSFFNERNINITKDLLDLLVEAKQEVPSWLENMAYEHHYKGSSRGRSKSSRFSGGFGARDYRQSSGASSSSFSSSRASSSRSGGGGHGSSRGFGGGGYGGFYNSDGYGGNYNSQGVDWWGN

| other: SaintScore ([1]; WNT-ON (10 µM CHIR99021)) | other: SaintScore ([2]; WNT-OFF (10 nM LGK974)) | other: SaintScore ([2]; WNT-ON (10 µM CHIR99021)) | other: SaintScore ([3]; WNT-OFF (10 nM LGK974)) | other: SaintScore ([3]; WNT-ON (10 µM CHIR99021)) | other: SaintScore ([4]; WNT-OFF (10 nM LGK974)) | other: SaintScore ([4]; WNT-ON (10 µM CHIR99021)) | other: SaintScore ([5]; WNT-OFF (10 nM LGK974)) | other: SaintScore ([5]; WNT-ON (10 µM CHIR99021)) | other: SaintScore ([1]; WNT-OFF (10 nM LGK974)) | Substance |
| --- | --- | --- | --- | --- | --- | --- | --- | --- | --- | --- |
| 0.67 | 0 | 0.67 | 0 | 0.67 | 0.32 | 0.71 | 0 | 0.67 |  | TBX3-WT-BirA (from UniProt O15119) NPF del |
| 0.67 | 0.67 | 0.67 | 1 | 0.93 | 1 | 0.65 | 1 | 0.67 | 0.33 | TBX3-WT-BirA (from UniProt O15119) RRM del |
